Assay results published in publication PMC10703879, “Antigen-induced chimeric antigen receptor multimerization amplifies on-tumor cytotoxicity” (Signal Transduction and Targeted Therapy, 2023).

B1: Nb2 (anti-BCMA nanobody 2 of the cilta-cel CAR) (VHH)
VHH: EVQLVESGGGLVQAGGSLRLSCAASGRTFTMGWFRQAPGKEREFVAAISLSPTLAYYAESVKGRFTISRDNAKNTVVLQMNSLKPEDTALYYCAADRKSVMSIRPDYWGQGTQVTVSS
notes: VHH from a phage display library of llamas immunized with BCMA; calculated Mw 13.6 kDa; source: provided by GenScript
B2: Nb1 (anti-BCMA nanobody 1 of the cilta-cel CAR) (VHH)
VHH: QVKLEESGGGLVQAGRSLRLSCAASEHTFSSHVMGWFRQAPGKERESVAVIGWRDISTSYADSVKGRFTISRDNAKKTLYLQMNSLKPEDTAVYYCAARRIDAADFDSWGQGTQVTVSS
notes: VHH from a phage display library of llamas immunized with BCMA; calculated Mw 13.9 kDa; source: provided by GenScript

Assays:
Conditions in all cases: both partners purified
[1] = molecular target: T1, BCMAECD-Fc (dimerized, Fc-tagged human BCMA extracellular domain) (human, UniProt Q02223-1); assay: SPR; Biacore 8K, 25 °C, 10 mM HEPES pH 7.4, 150 mM NaCl, 0.05% Tween 20; BCMAECD-Fc immobilised by amine coupling on CM5; nanobodies as analytes (five two-fold dilutions); Langmuir model for Nb1 and Nb2, heterogeneous ligand model for NbT
T1 construct: B-cell maturation antigen (BCMA), human, extracellular domain; also called Fc-tagged human BCMAECD

[2] = molecular target: T2, BCMAECD (synthesized extracellular domain of human B-cell maturation antigen, residues 1-54) (human, UniProt Q02223-1); assay: AUC; sedimentation velocity; complexes formed by mixing nanobody with excess BCMAECD (molar ratio 1:4, overnight at 4 °C); 1 mg/ml, 45,000 rpm, 20 mM Tris pH 8.0, 100 mM NaCl, 4 °C
T2 construct: B-cell maturation antigen (BCMA), human, extracellular domain, residues 1-54 of UniProt Q02223-1; synthesized, without glycosylation; calculated Mw 5.9 kDa; also called BCMA extracellular domain; BCMA ectodomain; source: synthetic peptide (GL Biochem, Shanghai)

[3] = molecular target: T2, BCMAECD (synthesized extracellular …); assay: SEC; nanobody-BCMAECD complexes (mixed 1:4, overnight at 4 °C, Superdex 75)
[4] = molecular target: T3, BCMAECD-His (monomeric, His-tagged human BCMA extracellular domain) (Homo sapiens, UniProt Q02223-1); assay: SPR; Biacore 8K, 25 °C, 10 mM HEPES pH 7.4, 150 mM NaCl, 0.05% Tween 20; BCMAECD-His immobilised by amine coupling on CM5; nanobodies as analytes (five two-fold dilutions); Langmuir model for Nb1 and Nb2, heterogeneous ligand model for NbT
T3 construct: B-cell maturation antigen (BCMA), human, extracellular domain; also called His-tagged human BCMAECD
T3 sequence (Q02223 1-54): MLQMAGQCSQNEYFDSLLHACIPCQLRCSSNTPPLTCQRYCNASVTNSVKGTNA

T2 sequence (Q02223 1-54): as above
T1 sequence (Q02223 1-54): as above

Row | Binder | Kd [1] [nM] | stoichiometry N [2] | stoichiometry N [3] | Kd [4] [nM]
1 | B1 | 3.7 | 1 Nb2 per BCMAECD (printed 1:1) | ~1 Nb2 per BCMAECD (printed 1:1) | 4.2
2 | B2 | 0.67 | 1 Nb1 per BCMAECD (printed 2:2) | ~1 Nb1 per BCMAECD (printed 2:2) | 3.9
